First the molecules themselves.
B1: 22.0011 (peptide)
chain: KNKFFSYL
B2: LCMV NP 396 (peptide)
chain: FQPQNGQFI
B3: 928.07 (peptide)
chain: SGVENPGGYCL
B4: 1275.04 (peptide)
chain: FAPGYNPAL
B5: 16.0031 (peptide)
chain: ANFSFRNTL
B6: FluA POL2 463 (peptide)
chain: VYINTALL
B7: F190.04 (peptide)
chain: SHYAFSPM
B8: Flu M1 128 (peptide)
chain: MGLIYNRM
B9: Flu NS 114 (peptide)
chain: RTFSFQLI
B10: 17.0284 (peptide)
chain: NAIVFKGL
B11: FluA NP 36 (peptide)
chain: IGRFYIQM
B12: 14.0008 (peptide)
chain: IVTMFEAL
B13: 1087.01 (peptide)
chain: RGPGRAFVTI
B14: F079.03 (peptide)
chain: SIQFFGERAL
B15: F117.14 (peptide)
chain: SVYDFFVWL
B16: FluA M1 117 (peptide)
chain: LSYSAGAL
B17: FluA POL1 465 (peptide)
chain: RFYRTCKL
B18: F079.04 (peptide)
chain: SIQFFGEL
B19: 22.0021 (peptide)
chain: YMVPFIPL
B20: 14.0011 (peptide)
chain: ISHNFCNL
B21: FluA HA 305 (peptide)
chain: SSLPFQNI
B22: F079.08 (peptide)
chain: AAAANAAAM
B23: HBV env 329 (peptide)
chain: ASARFSWL
B24: FluA POL3 227 (peptide)
chain: VYIEVLHL
B25: FluA POL1 495 (peptide)
chain: FFYRYGFV
B26: HBV core 122 (peptide)
chain: MGLKFRQL
B27: 16.0004 (peptide)
chain: LGYDYSYL
B28: Flu NS 31 (peptide)
chain: MITQFESL
B29: HBV pol 419 (peptide)
chain: VSAAFYHL
B30: 1476.12 (peptide)
chain: HMWNFIGV
B31: F079.09 (peptide)
chain: AAAAAANAAAM
B32: 22.0012 (peptide)
chain: LAVLYCLL
B33: FluA POL1 198 (peptide)
chain: KMITQRTI
B34: F138.03 (peptide)
chain: SVYDFYVWM
B35: HBV core 115 (peptide)
chain: VSYVNTNM
B36: FluA HA 403 (peptide)
chain: MNIQFTAV
B37: 1079.14 (peptide)
chain: RNPRFYNL
B38: 14.0118 (peptide)
chain: VGLSYSQTM
B39: 14.0018 (peptide)
chain: GVYQFKSV
B40: F078.18 (peptide)
chain: SYLTLAKHTI
B41: HBV core 116 (peptide)
chain: SYVNTNMGL
B42: F078.05 (peptide)
chain: HYYVSRDTL
B43: 1074.15 (peptide)
chain: RYLENGKETL
B44: 1081.06 (peptide)
chain: SYVPSAEQIL
B45: 1114.01 (peptide)
chain: AYAPAKAAI
B46: HBV env 362 (peptide)
chain: WYWGPSLYSI
B47: 1114.07 (peptide)
chain: AYAGAKAAI
B48: F078.06 (peptide)
chain: YYVSRDTLL
B49: 1275.03 (peptide)
chain: ASNENMDAM
B50: F079.06 (peptide)
chain: AAAAYAAAAM
B51: 928.15 (peptide)
chain: FQPQNGQFIHFY
B52: F079.05 (peptide)
chain: AAAAYAAM
B53: FluA POL1 141 (peptide)
chain: TALANTIEV
B54: HBV pol 668 (peptide)
chain: KQYLNLYPV
B55: FluA NM 46 (peptide)
chain: TGICNQNII
B56: 16.0029 (peptide)
chain: SSMHNALHI
B57: F142.01 (peptide)
chain: KVPRNQDWL
B58: F100.04 (peptide)
chain: SQVMNLHNL

We go through 58 molecules from patent publication US9340577.

Several values for one entry are separate records, joined by “and”; a condition that tells them apart may be missing. Equal entries are not always repeated.

The first test concerns the target T1, H-2Kb (mouse).
T1 chain 1: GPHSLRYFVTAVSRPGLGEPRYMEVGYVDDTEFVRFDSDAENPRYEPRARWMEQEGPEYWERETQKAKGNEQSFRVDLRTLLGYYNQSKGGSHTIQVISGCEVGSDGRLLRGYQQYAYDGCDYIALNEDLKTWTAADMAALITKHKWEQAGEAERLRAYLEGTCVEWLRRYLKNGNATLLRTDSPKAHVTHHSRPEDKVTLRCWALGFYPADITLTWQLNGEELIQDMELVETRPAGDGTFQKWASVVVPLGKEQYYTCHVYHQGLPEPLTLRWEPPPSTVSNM
T1 chain 2: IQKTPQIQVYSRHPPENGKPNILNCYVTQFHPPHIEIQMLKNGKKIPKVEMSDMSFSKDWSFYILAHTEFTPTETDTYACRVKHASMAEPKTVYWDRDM
Kind of test: competition. As to conditions: modification not given.
Turning to B1, the 50% inhibitory concentration (IC50) – broadly, the point on the concentration scale where inhibition reaches its midpoint – was determined as 57 nM.

Turning to B2, the concentration for half-maximal inhibition (IC50) is > 31000 nM and 9510 nM.

B3 displayed a half-maximal inhibitory concentration (IC50) above 31000 nM.

The molecule B4 returned a half-inhibitory concentration (IC50) of 2 nM. This counts as single-digit nanomolar.

In turn, B5 displayed an IC50 of 6 nM.

With B6, the IC50 was 14 nM and 65 nM.

For the molecule B7, the IC50 was 250 nM.

On to B8, for which the concentration for half-maximal inhibition (IC50) was 16 nM and 9.9 nM.

In the case of B9, the half-maximal inhibitory concentration (IC50) is 26 nM and 27 nM.

Molecule B10 registered a half-maximal inhibitory concentration (IC50) of 484 nM.

As to B11, the concentration for half-maximal inhibition (IC50) was 24 nM and 42 nM.

Consider B12, for which the IC50 came out at 82 nM.

Take B13: the half-inhibitory concentration (IC50) stood at 31000 nM.

Molecule B14 yielded a half-inhibitory concentration (IC50) of 21 nM.

B15 showed an IC50 of 1 nM.

As to B16, the IC50 was 60 nM and 31 nM.

Molecule B17 gave a 50% inhibitory concentration (IC50) of 47 nM.

Consider B18, for which the concentration for half-maximal inhibition (IC50) was 16 nM. This IC50 is about 2.9-fold lower than that of the molecule before.

B19 came in with an IC50 of 70 nM. Against the preceding molecule, the IC50 is about 4.4-fold higher.

In turn, B20 displayed an IC50 of 411 nM. This IC50 lies about 5.9-fold higher than the previous one.

For the molecule B21, the 50% inhibitory concentration (IC50) was 9.5 nM and 53 nM.

For the molecule B22, the IC50 is 11000 nM. This counts as double-digit micromolar.

As for B23, the IC50 is 323 nM and 49 nM.

With B24, the half-maximal inhibitory concentration (IC50) was 75 nM and 21 nM.

B25 had an IC50 of 350 nM.

Consider B26, for which the 50% inhibitory concentration (IC50) was 7.4 nM and 6.3 nM.

Regarding B27, the concentration for half-maximal inhibition (IC50) stood at 3.4 nM.

Regarding B28, the concentration for half-maximal inhibition (IC50) was 42 nM and 64 nM.

Consider B29, for which the 50% inhibitory concentration (IC50) was 5.2 nM and 7 nM.

Regarding B30, the half-inhibitory concentration (IC50) worked out at 202 nM. This lies in the sub-micromolar range.

For B31, the IC50 was 31000 nM. Against the preceding molecule, the IC50 is about 150-fold higher.

As to B32, the concentration for half-maximal inhibition (IC50) stood at 72 nM.

B33 returned an IC50 of 300 nM.

For B34, the IC50 was 1.2 nM.

With B35, the IC50 was 33 nM and 60 nM.

Molecule B36 gave an IC50 of 26 nM.

In turn, B37 registered a half-maximal inhibitory concentration (IC50) of 7.9 nM.

The molecule B38 yielded a concentration for half-maximal inhibition (IC50) of 71 nM. Against the preceding molecule, the IC50 is about 9-fold higher.

In turn, B39 showed an IC50 of 11 nM.

A further test deals with T2, H-2Kd (mouse).
T2 chain 1: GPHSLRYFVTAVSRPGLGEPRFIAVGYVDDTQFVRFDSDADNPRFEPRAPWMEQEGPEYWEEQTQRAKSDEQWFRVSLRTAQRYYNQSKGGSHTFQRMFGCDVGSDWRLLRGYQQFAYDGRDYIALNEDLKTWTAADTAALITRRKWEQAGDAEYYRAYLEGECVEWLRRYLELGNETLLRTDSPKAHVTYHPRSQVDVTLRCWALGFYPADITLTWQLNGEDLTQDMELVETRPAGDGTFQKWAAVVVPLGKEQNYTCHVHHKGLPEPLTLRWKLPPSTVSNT
T2 chain 2: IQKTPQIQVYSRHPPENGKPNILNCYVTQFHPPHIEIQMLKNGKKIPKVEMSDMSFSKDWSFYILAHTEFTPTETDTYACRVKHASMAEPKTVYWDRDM
Kind of test: competition. The conditions noted are these: modification not given.
B40 registered an IC50 of 4.4 nM.

In the case of B41, the IC50 is 19 nM and 12 nM.

Molecule B42 displayed an IC50 of 43 nM.

B43 gave an IC50 of 80 nM.

B44 came in with a half-inhibitory concentration (IC50) of 280 nM.

As for B45, the IC50 was found to be 3.5 nM. Compared with the last molecule, the IC50 is about 80-fold lower.

B46: the half-maximal inhibitory concentration (IC50) is 16 nM and 8.3 nM.

As to B47, the concentration for half-maximal inhibition (IC50) amounted to 48 nM.

In turn, B48 gave a 50% inhibitory concentration (IC50) of 99 nM. This IC50 is about 2.1-fold higher than that of the molecule before.

The next test has as its target T3, H-2Db (mouse).
T3 chain 1: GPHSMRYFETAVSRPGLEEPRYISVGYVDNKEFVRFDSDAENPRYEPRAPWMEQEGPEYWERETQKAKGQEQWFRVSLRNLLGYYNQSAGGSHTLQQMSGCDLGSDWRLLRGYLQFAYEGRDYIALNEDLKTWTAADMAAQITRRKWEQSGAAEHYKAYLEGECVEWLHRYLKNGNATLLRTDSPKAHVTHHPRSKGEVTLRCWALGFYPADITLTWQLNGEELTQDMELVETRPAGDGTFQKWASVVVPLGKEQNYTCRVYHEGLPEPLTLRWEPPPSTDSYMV
T3 chain 2: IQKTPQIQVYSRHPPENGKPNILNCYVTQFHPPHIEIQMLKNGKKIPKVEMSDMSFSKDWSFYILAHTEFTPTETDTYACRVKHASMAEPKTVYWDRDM
Kind of test: competition. As to conditions: modification not given.
In the case of B2, the half-inhibitory concentration (IC50) was 4.9 nM and 6.9 nM and 17 nM.

In the case of B3, the IC50 was found to be 60 nM.

Turning to B49, the IC50 was 28 nM. This IC50 is about 2.1-fold lower than that of the molecule before.

On to B7, for which the half-maximal inhibitory concentration (IC50) is above 88000 nM.

In the case of B13, the IC50 came to 22000 nM.

B14 displayed a concentration for half-maximal inhibition (IC50) above 44000 nM.

B50 displayed a half-maximal inhibitory concentration (IC50) above 44000 nM.

For the molecule B51, the IC50 was found to be 280 nM.

For the molecule B52, the IC50 was above 44000 nM.

Regarding B18, the IC50 was above 44000 nM.

Regarding B53, the concentration for half-maximal inhibition (IC50) was 3.7 nM and 16 nM.

The molecule B54 displayed an IC50 of 3.4 nM.

As to B55, the IC50 was 21 nM and 13 nM.

For the molecule B56, the IC50 is 7.6 nM.

In turn, B22 had an IC50 of 23 nM.

B57 had an IC50 of 38 nM.

The molecule B37 showed a half-maximal inhibitory concentration (IC50) above 44000 nM.

In turn, B58 showed an IC50 of 2.3 nM.
